The target in test [1] is T1, fibrin monomers, dimers and/or oligomers (UniProt P02671 36-629; P02675 45-491; P02679 27-437).
T1 sequence (looked up) 1: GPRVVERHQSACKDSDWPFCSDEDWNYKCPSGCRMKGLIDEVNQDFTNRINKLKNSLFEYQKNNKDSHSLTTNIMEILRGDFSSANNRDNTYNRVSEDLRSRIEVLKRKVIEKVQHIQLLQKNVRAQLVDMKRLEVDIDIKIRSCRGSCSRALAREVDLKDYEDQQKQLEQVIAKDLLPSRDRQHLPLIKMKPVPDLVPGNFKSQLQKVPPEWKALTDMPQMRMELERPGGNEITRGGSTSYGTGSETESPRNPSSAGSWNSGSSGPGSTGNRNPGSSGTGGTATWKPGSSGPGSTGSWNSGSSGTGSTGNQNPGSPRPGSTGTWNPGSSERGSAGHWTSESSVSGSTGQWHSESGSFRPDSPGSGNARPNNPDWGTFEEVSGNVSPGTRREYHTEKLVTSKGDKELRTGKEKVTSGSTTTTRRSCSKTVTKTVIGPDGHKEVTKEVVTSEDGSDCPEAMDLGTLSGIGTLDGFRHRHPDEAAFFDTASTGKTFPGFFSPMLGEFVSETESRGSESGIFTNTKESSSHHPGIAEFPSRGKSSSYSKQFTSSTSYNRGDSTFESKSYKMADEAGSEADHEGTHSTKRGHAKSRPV
T1 sequence (looked up) 2: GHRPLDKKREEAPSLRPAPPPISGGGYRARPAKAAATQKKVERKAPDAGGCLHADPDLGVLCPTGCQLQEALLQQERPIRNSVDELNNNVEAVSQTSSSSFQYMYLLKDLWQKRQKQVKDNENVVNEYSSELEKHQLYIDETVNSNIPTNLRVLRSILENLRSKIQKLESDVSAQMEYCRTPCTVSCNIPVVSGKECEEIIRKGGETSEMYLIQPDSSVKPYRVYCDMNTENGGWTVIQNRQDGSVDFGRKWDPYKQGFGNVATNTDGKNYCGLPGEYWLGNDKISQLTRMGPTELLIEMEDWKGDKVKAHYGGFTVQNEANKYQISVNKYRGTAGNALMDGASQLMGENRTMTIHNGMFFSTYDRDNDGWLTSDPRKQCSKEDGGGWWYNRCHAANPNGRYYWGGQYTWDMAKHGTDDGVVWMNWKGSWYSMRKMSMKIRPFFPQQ
T1 sequence (looked up) 3: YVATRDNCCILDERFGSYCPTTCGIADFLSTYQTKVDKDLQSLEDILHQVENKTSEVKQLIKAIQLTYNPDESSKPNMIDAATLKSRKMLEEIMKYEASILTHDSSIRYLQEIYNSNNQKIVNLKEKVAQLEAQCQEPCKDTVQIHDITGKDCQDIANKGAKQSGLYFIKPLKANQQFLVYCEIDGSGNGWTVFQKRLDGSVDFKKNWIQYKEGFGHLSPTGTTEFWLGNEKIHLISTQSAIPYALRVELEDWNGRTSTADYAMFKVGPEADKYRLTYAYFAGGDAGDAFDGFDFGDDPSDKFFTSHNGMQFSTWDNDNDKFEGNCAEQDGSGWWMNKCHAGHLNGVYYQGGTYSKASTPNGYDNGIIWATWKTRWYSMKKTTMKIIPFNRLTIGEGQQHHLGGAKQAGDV
Kind of test: cell-based or functional assay.

The target of test [2] is T1, fibrin monomers, dimers and/or oligomers. In words: cell-based or functional assay. The source holds these as a separate data set.

As to GPRP [GPRP peptide (Gly-Pro-Arg-Pro)], in test [1], the “Time to clot (cessation of flow on tube inversion); GPRP 0.1 mM, 1.1-fold GPRP:fibrin, 3% fibrin, thrombin 100 IU/ml” value worked out at 5 s; the “Time to clot (cessation of flow on tube inversion); GPRP 0.2 mM, 2.3-fold GPRP:fibrin, 3% fibrin, thrombin 100 IU/ml” value was 7 s; the “Time to clot (cessation of flow on tube inversion); GPRP 0.5 mM, 5.7-fold GPRP:fibrin, 3% fibrin, thrombin 100 IU/ml” value was found to be 11 s; the “Time to clot (cessation of flow on tube inversion); GPRP 1 mM, 11.3-fold GPRP:fibrin, 3% fibrin, thrombin 100 IU/ml” value was 13 s. Moreover, in test [1], the “Time to clot (cessation of flow on tube inversion); GPRP 1.5 mM, 17-fold GPRP:fibrin, 3% fibrin, thrombin 100 IU/ml” value was 22 s; the “Time to clot (cessation of flow on tube inversion); GPRP 2 mM, 22.7-fold GPRP:fibrin, 3% fibrin, thrombin 100 IU/ml” value came to 28 s; the “Time to clot (cessation of flow on tube inversion); GPRP 3 mM, 34-fold GPRP:fibrin, 3% fibrin, thrombin 100 IU/ml” value was determined as 2.5 min; the “Time to clot (cessation of flow on tube inversion); GPRP 4 mM, 45-fold GPRP:fibrin, 3% fibrin, thrombin 100 IU/ml” value amounted to 8 min. For the same molecule, the “Time to clot (cessation of flow on tube inversion); GPRP 5 mM, 56.7-fold GPRP:fibrin, 3% fibrin, thrombin 100 IU/ml” value in test [1] was 15 min. Also, the “fibrin polymerization; 40 mM GPRP, molar ratio above 340:1 GPRP:fibrin” value in test [2] is > 14 days.

(Values after patent US20150272562A1 (ETHICON, published 2015).)
